The source of these data is PMC7613635 (Nature structural & molecular biology, 2022).

Substitutions are numbered along the chain they refer to.

Assay [1] has as its target T1, Gallus gallus FANCD2 (Gallus gallus (chicken), UniProt Q68Y81 1-1439). Nature of the assay: cross-linking.
The target in assay [2] is T1, Gallus gallus FANCD2. Nature of the assay: cryo-EM structure.

T1 sequence (Q68Y81 whole entry): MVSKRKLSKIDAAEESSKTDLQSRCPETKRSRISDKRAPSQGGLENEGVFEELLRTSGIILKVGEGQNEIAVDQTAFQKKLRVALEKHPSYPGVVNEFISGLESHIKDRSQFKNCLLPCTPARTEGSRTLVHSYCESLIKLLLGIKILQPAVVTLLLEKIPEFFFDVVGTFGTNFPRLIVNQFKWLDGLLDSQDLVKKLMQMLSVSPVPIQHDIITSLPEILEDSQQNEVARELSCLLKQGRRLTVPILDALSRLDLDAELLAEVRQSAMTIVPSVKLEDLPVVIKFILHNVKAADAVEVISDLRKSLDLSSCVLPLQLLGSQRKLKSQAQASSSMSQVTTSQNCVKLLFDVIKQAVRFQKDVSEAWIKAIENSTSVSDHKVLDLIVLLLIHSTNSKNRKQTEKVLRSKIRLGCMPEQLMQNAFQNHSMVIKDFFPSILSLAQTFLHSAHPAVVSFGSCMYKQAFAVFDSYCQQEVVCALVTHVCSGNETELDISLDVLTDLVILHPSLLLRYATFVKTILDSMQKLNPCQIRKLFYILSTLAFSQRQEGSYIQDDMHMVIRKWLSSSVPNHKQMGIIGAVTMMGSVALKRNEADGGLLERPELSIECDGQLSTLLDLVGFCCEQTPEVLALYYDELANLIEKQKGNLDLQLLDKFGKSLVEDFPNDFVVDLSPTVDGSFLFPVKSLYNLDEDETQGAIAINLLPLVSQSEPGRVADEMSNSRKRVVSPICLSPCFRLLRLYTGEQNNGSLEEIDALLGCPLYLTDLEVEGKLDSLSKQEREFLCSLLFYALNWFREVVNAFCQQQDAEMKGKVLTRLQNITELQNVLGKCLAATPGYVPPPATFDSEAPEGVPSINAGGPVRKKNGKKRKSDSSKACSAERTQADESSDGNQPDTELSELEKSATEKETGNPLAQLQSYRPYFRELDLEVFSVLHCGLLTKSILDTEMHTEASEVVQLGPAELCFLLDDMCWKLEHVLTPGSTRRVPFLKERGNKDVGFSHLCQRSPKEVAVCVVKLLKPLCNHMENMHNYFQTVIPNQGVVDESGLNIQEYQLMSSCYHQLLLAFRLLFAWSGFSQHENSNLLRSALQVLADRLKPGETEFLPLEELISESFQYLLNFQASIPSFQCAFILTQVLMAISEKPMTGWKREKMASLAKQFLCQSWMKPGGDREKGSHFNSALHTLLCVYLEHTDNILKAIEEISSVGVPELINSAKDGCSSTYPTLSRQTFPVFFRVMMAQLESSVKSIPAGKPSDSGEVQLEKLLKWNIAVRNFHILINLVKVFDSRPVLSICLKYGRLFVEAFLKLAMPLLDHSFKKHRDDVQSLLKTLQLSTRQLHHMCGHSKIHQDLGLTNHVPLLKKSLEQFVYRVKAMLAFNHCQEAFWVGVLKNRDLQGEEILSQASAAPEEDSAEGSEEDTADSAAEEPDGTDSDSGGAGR

B1: Gallus gallus FANCI, wild type (natural protein, Gallus gallus (chicken), UniProt B0I564 1-1338, looked up)
chain: MAQRILQLAAEGSPERLQEALQGLTEGELGDMVTRQALRGRETAALLKGIFKGSPCSQQSGVLRRLQVYKHCVSLVESGDLHVGKVSEIIGLLMLEARQLPGHALAELATLFVEVIKRGSLSNGKSLELFSTVLTALSNSKESLAYGKGELNGEEFKKQLINTLCSSKWDPQCVIHLANMFRDIPLSGEELQFVVEKVLRMFSKLDLQEIPPLVYQLLLLSAKGSKKTVLEGIISFFNQLDKRQKEEQRVPQSADLEVATVPLDQLRHVEGTVILHIVSAINLDQDIGEELIKHLKTEQQKDPGKALCPFSVSLLLSTAVKHRLQEQIFDFLKTSITRSCKDLQILQASKFLQDLCPQQYDVTAVILEVVKNSAFGWDHVTQGLVDLGFSLMESYEPKKSFGGKAAETNLGLSKMPAQQACKLGASILLETFKVHEPIRSDILEQVLNRVLTKAASPVSHFIDLLSNIVVSAPLVLQNSSSRVTETFDNLSFLPIDTVQGLLRAVQPLLKVSMSVRDSLILVLQKAIFSRQLDARKAAVAGFLLLLRNFKILGSLTSSQCSQAIGATQVQADVHACYNSAANEAFCLEILGSLRRCLSQQADVRLMLYEGFYDVLRRNSQLASSIMETLLSQIKQYYLPQQDLLPPLKLEGCIMAQGDQIFLQEPLAHLLCCIQHCLAWYKSTVHLCKGAEDEEEEEDVGFEQNFEEMLESVTRRMIKSELEDFELDKSADFSPSSGVGVKNNIYAIQVMGICEVLIEYNFKIGNFSKNKFEDVLGLFTCYNKLSEILKEKAGKNKSTLGNRIARSFLSMGFVSTLLTALFRDNAQSHEESLAVLRSSTEFMRYAVSVALQKVQQLEEMGQTDGPDGQNPEKMFQNLCKITRVLLWRYTSIPTAVEESGKKKGKSISLLCLEGLLRIFNTMQQLYAARIPQFLQALDITDGDAEEADINVTEKAAFQIRQFQRSLVNQLSSAEDDFNSKETQLLITILSTLSKLLDPGSQQFLQFLTWTVKICKENALEDLSCCKGLLTLLFSLHVLYKSPVSLLRELAQDIHACLGDIDQDVEIESRSHFAIVNVKTAAPTVCLLVLGQADKVLEEVDWLIKRLTILGSDTSEDSTQASNQTQALEKGVILQLGTLLTVFHELVQTALPAGSCVDSLLRSLSKTYAILTSLIKHYIQACRSTSNTVPGRLEKLVKLSGSHLTPQCYSFITYVQNIHSESLSFAEEKKKKKKEDETAVVSTVMAKVLRDTKPIPNLIFAIEQYEKFLIHLSKKSKVNLMQYMKLSTSRDFRINASMLDSVLQEQNTEDAENEPDNNQSGTAEQPDENQEPQKKRRRKK
In the case of B1, in the assay with Gallus gallus FANCD2 [1], the binding result is “binds”.

B2: phosphomimetic chicken FANCI (I^3D) (natural protein, Gallus gallus (chicken), UniProt B0I564 1-1338, looked up)
chain: B1 chain with S558D, S561D, T567D
For B2, the binding result with Gallus gallus FANCD2 [2] was “binds”.
